Patent publication EP4725970A1 (Fortvita Biologics Inc., dated 2026)
Changes are numbered by the printed parent chain. Where two headings read alike, the source gives them in different places.

B1: Roche-BCMA/CD3 (Alnuctamab) (bispecific antibody, human IgG1, kappa, L234A L235A)
chain: EVQLLESGGGLVQPGGSLRLSCAASGFTFSTYAMNWVRQAPGKGLEWVSRIRSKYNNYATYYADSVKGRFTISRDDSKNTLYLQMNSLRAEDTAVYYCVRHGNFGNSYVSWFAYWGQGTLVTVSSASVAAPSVFIFPPSDEQLKSGTASVVCLLNNFYPREAKVQWKVDNALQSGNSQESVTEQDSKDSTYSLSSTLTLSKADYEKHKVYACEVTHQGLSSPVTKSFNRGEC
heavy 1: not shown
light: EIVLTQSPGTLSLSPGERATLSCRASQSVSDEYLSWYQQKPGQAPRLLIHSASTRATGIPDRFSGSGSGTDFTLAISRLEPEDFAVYYCQQYGYPPDFTFGQGTKVEIKRTVAAPSVFIFPPSDRKLKSGTASVVCLLNNFYPREAKVQWKVDNALQSGNSQESVTEQDSKDSTYSLSSTLTLSKADYEKHKVYACEVTHQGLSSPVTKSFNRGEC
heavy 2: EVQLLESGGGLVQPGGSLRLSCAASGFTFSDNAMGWVRQAPGKGLEWVSAISGPGSSTYYADSVKGRFTISRDNSKNTLYLQMNSLRAEDTAVYYCAKVLGWFDYWGQGTLVTVSSASTKGPSVFPLAPSSKSTSGGTAALGCLVEDYFPEPVTVSWNSGALTSGVHTFPAVLQSSGLYSLSSVVTVPSSSLGTQTYICNVNHKPSNTKVDEKVEPKSCDKTHTCPPCPAPEAAGGPSVFLFPPKPKDTLMISRTPEVTCVVVDVSHEDPEVKFNWYVDGVEVHNAKTKPREEQYNSTYRVVSVLTVLHQDWLNGKEYKCKVSNKALGAPIEKTISKAKGQPREPQVCTLPPSRDELTKNQVSLSCAVKGFYPSDIAVEWESNGQPENNYKTTPPVLDSDGSFFLVSKLTVDKSRWQQGNVFSCSVMHEALHNHYTQKSLSLSPGK
notes: also called Roche-BCMAxCD3
B2: B3-7F5.3 (87) (7F5.3_sp34.87_497_triFab) (trispecific antibody, human IgG1, kappa, lambda, L234A L235A)
heavy 1: not shown
light 1: not shown
heavy 2: not shown
light 2: DIQMTQSPSSLSASVGDRVTITCRASQSISRYLNWYQDKPGKAPKLLIYAASSLQSGVPSRFSGSGSGTDFTLTISSLQPEDFATYYCQQKYFDITFGGGTKVEIKRTVAAPSVFIFPPSDECLKSGTASVVCLLNNFYPREAKVQWKVDNALQSGNSQESVTEQDSKDSTYSLSSTLTLSKADYEKHKVYACEVTHQGLSSPVTKSFNRGES
light 3: QAVVTQEPSLTVSPGGTVTLTCRSSTGAVTTSNYANWVQKKPGQAPRGLIGGTNKRAPGVPARFSGSLLGDKAALTLLGAQPEDEAEYYCALWYSNLWVFGQGTKLTVLGQPKAAPSVTLFPPSSEELQANKATLVCLISDFYPGAVTVAWKADSSPVKAGVETTTPSKQSNNKYAASSYLSLTPEQWKSHRSYSCQVTHEGSTVEKTVAPTECS
notes: also called Exemplary antibody No. 5
B3: JNJ-BCMA/CD3 (Teclistamab) (bispecific antibody, human IgG4 S228P, lambda, F234A L235A)
heavy 1: not shown
light 1: SYVLTQPPSVSVAPGQTARITCGGNNIGSKSVHWYQQPPGQAPVVVVYDDSDRPSGIPERFSGSNSGNTATLTISRVEAGDEAVYYCQVWDSSSDHVVFGGGTKLTVLGQPKAAPSVTLFPPSSEELQANKATLVCLISDFYPGAVTVAWKGDSSPVKAGVETTTPSKQSNNKYAASSYLSLTPEQWKSHRSYSCQVTHEGSTVEKTVAPTECS
heavy 2: EVQLVESGGGLVQPGGSLRLSCAASGFTFNTYAMNWVRQAPGKGLEWVARIRSKYNNYATYYAASVKGRFTISRDDSKNSLYLQMNSLKTEDTAVYYCARHGNFGNSYVSWFAYWGQGTLVTVSSASTKGPSVFPLAPCSRSTSESTAALGCLVKDYFPEPVTVSWNSGALTSGVHTFPAVLQSSGLYSLSSVVTVPSSSLGTKTYTCNVDHKPSNTKVDKRVESKYGPPCPPCPAPEAAGGPSVFLFPPKPKDTLMISRTPEVTCVVVDVSQEDPEVQFNWYVDGVEVHNAKTKPREEQFNSTYRVVSVLTVLHQDWLNGKEYKCKVSNKGLPSSIEKTISKAKGQPREPQVYTLPPSQEEMTKNQVSLTCLVKGFYPSDIAVEWESNGQPENNYKTTPPVLDSDGSFLLYSKLTVDKSRWQEGNVFSCSVMHEALHNHYTQKSLSLSLGK
light 2: B2 light 3 with A2T, K40Q, V60T, D71G, L78S, A80V, Q102G
notes: also called J&J BCMAxCD3
B4: B5 (87) (hz5E12_sp34.87_497_triFab) (trispecific antibody, human IgG1, kappa, lambda, L234A L235A)
heavy 1: not shown
light 1: DIVMTQSPDSLAVSLGERATINCRASESVDSYGITFMNWYQQKPGQPPKLLIYAASNQGSGVPDRFSGSGSGTDFTLTISSLQAEDVAVYYCQQSKEVPWTFGQGTKLEIKRTVAAPSVFIFPPSDEQLKSGTASVVCLLNNFYPREAKVQWKVDNALQSGNSQESVTEQDSKDSTYSLSSTLTLSKADYEKHKVYACEVTHQGLSSPVTKSFNRGEC
heavy 2: not shown
light 2: B2 light 3
light 3: B2 light 2
notes: also called Exemplary antibody No. 3
B5: B3b (87) (497(GLS)_sp34.87_5E12_triFab) (trispecific antibody, human IgG1, kappa, lambda, L234A L235A)
heavy 1: not shown
light 1: not shown
heavy 2: not shown
light 2: B4 light 1 with Q42D, Q128C, C218S
light 3: B2 light 3
notes: also called Exemplary antibody No. 4
B6: B3-7F5.3 (24) (7F5.3_sp34.24_497_triFab) (trispecific antibody, human IgG1, kappa, lambda, L234A L235A)
heavy 1: not shown
light 1: not shown
heavy 2: not shown
light 2: B2 light 2
light 3: B2 light 3
notes: also called Exemplary antibody No. 6
B7: REGN-BCMA/CD3 (REGN5458) (bispecific antibody)
VH: EVQLVESGGGLVQPGGSLRLSCAASGFTFSNFWMTWVRQAPGKGLEWVANMNQDGSEKYYVDSVKGRFTISRDNAKSSLYLQMNSLRAEDTAVYYCARDREYCISTSCYDDFDYWGQGTLVTVSS
VL: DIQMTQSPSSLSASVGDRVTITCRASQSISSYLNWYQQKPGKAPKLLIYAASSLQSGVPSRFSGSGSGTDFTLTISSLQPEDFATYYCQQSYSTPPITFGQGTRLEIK
chain: EVQLVESGGGLVQPGRSLRLSCAASGFTFDDYSMHWVRQAPGKGLEWVSGISWNSGSKGYADSVKGRFTISRDNAKNSLYLQMNSLRAEDTALYYCAKYGSGYGKFYHYGLDVWGQGTTVTVSS

Tests used:
[1] = target: T1, human BCMA (full-length, on cells) (human, UniProt Q02223 1-184); test: flow cytometry, GS-CHO-hBCMA cells
T1 construct: Overexpressed on GS-CHO and 293T cells; also the BCMA of H929 and L363 myeloma cells in the killing assays; also called hBCMA; wild-type BCMA
T1 sequence: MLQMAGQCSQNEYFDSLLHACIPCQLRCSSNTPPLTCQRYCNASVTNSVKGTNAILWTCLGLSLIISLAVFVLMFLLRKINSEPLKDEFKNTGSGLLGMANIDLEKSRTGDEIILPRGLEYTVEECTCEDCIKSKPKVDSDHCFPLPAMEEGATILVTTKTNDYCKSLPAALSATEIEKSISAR

Cyno BCMA-His = target: T2, Cyno BCMA-His (cynomolgus monkey, UniProt A0A2K5UD97 1-53); test: BLI (Octet), 1:1 fit
T2 construct: also called Cyno BCMA (ACRO BCA-C52H7); monkey BCMA

human CD3E&G-His/Free = target: T3, human CD3E&G-His/Free (human, UniProt P07766 23-126; P09693 23-116); test: BLI (Octet), 1:1 fit
T3 construct: Bought recombinant heterodimer; 'His/Free' as printed (one chain His-tagged); also called human CD3 E&G heterodimer

[2] = target: T1, human BCMA (full-length, on cells); test: cell-based or functional assay
[3] = target: T4, cynomolgus monkey BCMA (full-length, on cells) (cynomolgus monkey, UniProt A0A2K5UD97 1-183); test: flow cytometry, GS-CHO-cynoBCMA cells
T4 construct: whole, on cells; also called cynoBCMA; GS-CHO-cynoBCMA

[4] = target: T1, human BCMA (full-length, on cells); test: cell-based or functional assay; remark: listed apart in the source
cyno CD3E&G-His/Free = target: T5, cyno CD3E&G-His/Free (cynomolgus monkey, UniProt Q95LI5 22-117; Q95LI7 23-113); test: BLI (Octet), 1:1 fit
T5 construct: Bought recombinant heterodimer; also called monkey CD3 E&G
T5 sequence (looked up) 1: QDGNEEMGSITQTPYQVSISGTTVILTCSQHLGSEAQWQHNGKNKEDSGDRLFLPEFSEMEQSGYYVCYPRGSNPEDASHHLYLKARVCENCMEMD
T5 sequence (looked up) 2: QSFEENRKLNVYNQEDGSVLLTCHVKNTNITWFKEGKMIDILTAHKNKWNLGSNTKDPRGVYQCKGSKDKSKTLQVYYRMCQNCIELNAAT

[5] = target: T6, human CD3 (on Jurkat cells and human T cells) (human, UniProt P07766 23-207); test: flow cytometry, Jurkat cells
T6 construct: whole, on cells; the other chains of the complex on the cells are not described; also called CD3E

[6] = target: T6, human CD3 (on Jurkat cells and human T …); test: flow cytometry, human CD4 T cells
[7] = target: T6, human CD3 (on Jurkat cells and human T …); test: flow cytometry, human CD8 T cells
[8] = target: T1, human BCMA (full-length, on cells); test: flow cytometry, GS-CHO-hBCMA cells; remark: listed apart in the source
[9] = target: T1, human BCMA (full-length, on cells); test: cell-based or functional assay; remark: listed apart in the source
[10] = target: T7, human GPRC5D (full-length, on cells) (human, UniProt Q9NZD1 1-345); test: cell-based or functional assay
[11] = target: T7, human GPRC5D (full-length, on cells); test: flow cytometry, GS-CHO-hGPRC5D cells
[12] = target: T7, human GPRC5D (full-length, on cells); test: cell-based or functional assay; remark: listed apart in the source

T6 sequence (P07766 23-207): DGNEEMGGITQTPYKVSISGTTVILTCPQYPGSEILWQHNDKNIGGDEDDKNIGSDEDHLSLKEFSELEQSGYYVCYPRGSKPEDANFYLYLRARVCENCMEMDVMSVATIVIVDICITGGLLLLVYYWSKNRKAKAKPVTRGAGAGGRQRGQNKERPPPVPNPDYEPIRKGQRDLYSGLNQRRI
T3 sequence (P07766 23-126, chain 1 of 2): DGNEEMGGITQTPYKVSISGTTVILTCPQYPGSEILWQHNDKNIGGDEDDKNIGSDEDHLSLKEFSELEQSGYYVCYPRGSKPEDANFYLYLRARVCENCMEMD
T3 sequence (P09693 23-116, chain 2 of 2): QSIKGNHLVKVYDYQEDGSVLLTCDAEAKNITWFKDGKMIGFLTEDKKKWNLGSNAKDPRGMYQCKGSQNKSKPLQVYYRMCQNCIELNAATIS
T4 sequence (A0A2K5UD97 entry or part of it): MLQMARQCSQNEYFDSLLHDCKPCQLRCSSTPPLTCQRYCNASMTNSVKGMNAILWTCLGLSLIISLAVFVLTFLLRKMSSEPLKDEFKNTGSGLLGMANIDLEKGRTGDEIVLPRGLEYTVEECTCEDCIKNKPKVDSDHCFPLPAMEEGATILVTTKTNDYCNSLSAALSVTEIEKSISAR
T7 sequence (Q9NZD1 whole entry): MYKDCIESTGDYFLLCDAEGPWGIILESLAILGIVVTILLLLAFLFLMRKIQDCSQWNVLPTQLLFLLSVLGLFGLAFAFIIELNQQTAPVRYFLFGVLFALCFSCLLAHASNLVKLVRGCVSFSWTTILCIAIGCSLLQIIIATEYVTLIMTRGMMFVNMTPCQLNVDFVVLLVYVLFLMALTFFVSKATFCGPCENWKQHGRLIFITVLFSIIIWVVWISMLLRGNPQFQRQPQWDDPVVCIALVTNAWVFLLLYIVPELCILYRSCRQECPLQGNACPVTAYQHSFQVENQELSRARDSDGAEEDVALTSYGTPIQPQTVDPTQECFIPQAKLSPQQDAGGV
T2 sequence (A0A2K5UD97 entry or part of it): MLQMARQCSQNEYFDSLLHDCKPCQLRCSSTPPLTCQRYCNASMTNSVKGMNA

Binder | EC50 [1] [nM] | Kd (Cyno BCMA-His) [nM] | koff (Cyno BCMA-His) [s⁻¹] | kon (Cyno BCMA-His) [M⁻¹ s⁻¹] | Kd (human CD3E&G-His/Free) [nM] | koff (human CD3E&G-His/Free) [s⁻¹] | kon (human CD3E&G-His/Free) [M⁻¹ s⁻¹] | EC50 [3] [nM] | EC50 of PBMC killing of H929 ko GPRC5D cells, donor1 [4] [nM] | Kd (cyno CD3E&G-His/Free) [nM] | koff (cyno CD3E&G-His/Free) [s⁻¹] | kon (cyno CD3E&G-His/Free) [M⁻¹ s⁻¹] | EC50 [6] [nM] | EC50 [7] [nM] | also measured
B1 | 3.08 | 0.89 | 0.00125 | 1.4e+06 | 13 | 0.00469 | 361000 | 3.81 | 0.0045 | – | – | – | – | – | EC50 of PBMC killing of H929 ko GPRC5D cells (LDH) [2]: 0.0161 nM
B2 | – | 0.244 | 0.0002 | 821000 | 64.1 | 0.0152 | 236000 | – | 0.167 | 58.6 | 0.012 | 205000 | – | – | –
B3 | – | 17.5 | 0.0338 | 1.94e+06 | 15.4 | 0.0057 | 370000 | 829 | – | 12.1 | 0.00481 | 396000 | 25.9 | 24.6 | EC50 [5]: 6.39 nM
B4 | – | – | – | – | – | – | – | – | – | – | – | – | – | – | binding result [8]: no binding; EC50 of PBMC killing of H929 ko GPRC5D cells (LDH) [9]: 0.182 nM; EC50 of PBMC killing of H929 ko BCMA cells (LDH) [10]: 0.0105 nM
B5 | – | – | – | – | – | – | – | – | 0.14 | – | – | – | – | – | EC50 [11]: 95.9 nM; EC50 of PBMC killing of H929 ko BCMA cells, donor1 [12]: 0.879 nM
B6 | 7.36 | – | – | – | 14.4 | 0.00874 | 608000 | 9.69 | – | 10.2 | 0.00675 | 662000 | 43.4 | 42.4 | EC50 of PBMC killing of H929 ko GPRC5D cells (LDH) [2]: 0.0751 nM
B7 | 59.2 | 14 | 0.0108 | 767000 | – | – | – | 1320 | 0.0395 | – | – | – | 33.4 | 31.9 | EC50 [8]: 76.1 nM; EC50 [5]: 12 nM; EC50 of PBMC killing of H929 ko GPRC5D cells (LDH) [9]: 0.0375 nM; binding result (human CD3E&G-His/Free): no binding (tested: 100 nM); binding result (cyno CD3E&G-His/Free): no binding (tested: 100 nM)
